Source: the Human Domainome abundance scans (Beltran et al. 2025)

B1: Zinc finger MYM-type protein 3, residues 589 to 668; numbered along this chain, Q14202 (parent)
chain: LSCHYCHSLFSGKPEVLDWQDQVFQFCCRDCCEDFKRLRGVVSQCEHCRQEKLLHEKLRFSGVEKSFCSEGCVLLYKQDF

Variants of: B1
Experiment: abundance fitness (aPCA) (normalised: wild type 0, dead -1); higher = more abundant; growth selection in yeast, the domain comes from the species named
Settings: Homo sapiens

Abundance fitness: each site, then its substitutions
Q22: G 0.253, F 0.047, M 0.309, S 0.24, I -0.068, C 0.117, E 0.313, N 0.255, D 0.297, T 0.174, V 0.288, K -0.075, P -0.071, Y 0.101, A 0.26, W -0.054, L 0.063, H 0.269, R 0.165
C27: D -0.352, E -0.721, F -0.607, A -0.673, K -0.882, G -0.572, H -0.517, I -0.752, L -0.89
V23: R 0.294, G -0.003, D -0.085, C 0.236, S 0.287, K 0.268, Y -0.164, H 0.111, A 0.023, N 0.169, W 0.134, E 0.227, L 0.155, Q 0.246, M 0.338, T 0.175
P14: V -0.246, G -0.206, N -0.153, T -0.381, D -0.24, S -0.386, H -0.212, I -0.264, Q -0.39, M -0.169, F -0.371, E -0.309, C -0.6, L -0.523, W -0.528, A -0.223, R -0.459
D21: R -0.075, Q 0.033, G -0.114, H -0.182, N 0.027, Y -0.386, M 0.068, E -0.114, K 0.086, S -0.065, C -0.204, T 0.004, V -0.355, P -0.146
G12: E 0.034, A 0.013, D -0.274, T 0.039, K -0.02, F -0.384, S -0.038, H -0.15, N -0.187, W -0.27, C -0.272, Y -0.75, M -0.143, Q -0.003, P -0.227, I -0.395, L -0.261, R -0.145, V -0.267
E15: S -0.108, C 0.008, A -0.075, D -0.155, I 0.093, T 0.076, V 0.057, G -0.56, M 0.152, K -0.46, Q -0.086, W -0.033, N -0.015, L -0.014, H -0.017, F -0.049
F10: W -0.298, Q -0.685, H -0.043, D -0.623, T -0.16, I -0.115, N -0.373, G -0.408, S -0.316, E -0.691, Y -0.191, K -0.535, P -0.052, A -0.316, R -0.498
K13: F -0.135, Y -0.389, A -0.037, Q 0.039, S -0.062, M -0.444, E -0.001, P 0.042, V -0.169, D 0.019, L -0.048, H -0.043, T -0.081, G -0.162, R 0.05, C -0.117, N -0.198, I -0.098
W19: S 0.365, D -0.035, V 0.167, Q 0.225, H 0.137, R 0.157, N 0.225, I 0.234, T 0.326, K 0.183, A 0.175, P 0.224, E 0.201, M 0.48, F 0.364, G 0.105, C 0.276, Y 0.269, L 0.332
S11: I -0.312, R -0.406, T -0.155, Q -0.275, P -0.454, A -0.374, V -0.418, M -0.426, F -0.397, L -0.374, C -0.512, W -0.565, E -0.276, G -0.169
L9: G 0.121, K -0.096, T 0.083, E -0.021, S 0.009, W -0.095, N -0.121, V 0.015, F -0.062, C -0.184, D -0.073, Q 0.093, M -0.097, P 0.15, R -0.012
F26: Q -0.482, N -0.391, I -0.731, C -0.444, Y -0.409, T -0.489, M 0.134, W -0.522, D -0.657, A -0.49, P -0.664, G -0.603, K -0.524, V -0.515, R -0.603, E -0.506, H -0.666
D18: V -0.073, C -0.107, Y -0.127, N 0.138, L 0.036, E -0.06, R 0.155, M 0.175, A -0.007, Q 0.067, S 0.017, P 0.236, K -0.028, F -0.101, G -0.083, I -0.039, H -0.08
F24: T -0.033, N 0.001, E -0.143, L 0.203, P -0.383, V 0.133, Q -0.038, C 0.112, K 0.084, D -0.376, G -0.136, I 0.072, W 0.051
V16: S 0.011, L -0.065, T -0.03, I -0.121, D -0.702, E -0.072, Y -0.041, H -0.044, W -0.206, N -0.033, C -0.003, K -0.11, G -0.208, F -0.229, M 0.022, Q 0.003, P -0.099, R 0.004
H7: S 0.237, R 0.049, K 0.055, N 0.126, Q -0.12, Y 0.112, W -0.187, T 0.124, M -0.133, V -0.145
Q20: P 0.179, F 0.198, E 0.492, W 0.014, S 0.245, A 0.265, K 0.456, M 0.394, D 0.456, Y -0.3, L 0.08, G 0.334, N 0.348, R 0.151, H -0.021, V 0.032
S8: A 0.321, E 0.154, W -0.015, M 0.355, Q 0.397, I 0.309, N 0.297, H 0.188, P -1.19, G 0.248, F -0.039, T 0.246, D 0.076, V 0.374, R 0.332, L 0.062, Y 0.192, K 0.486
Q25: S 0.016, E 0.226, V 0.032, W 0.033, I -0.084, M 0.198, G 0.088, D 0.085, A -0.044, H 0.122, Y 0.025, K 0.113, C -0.081, L -0.163, F -0.035
L17: W -0.135, T -0.06, G -0.135, E -0.146, F -0.079, H -0.017, P -0.311, V -0.027, N -0.53, D -0.332, S -0.262, M 0.043, Y -0.202, I -0.009, Q -0.015, R -0.348, K -0.359, A -0.035, C -0.077
